In the supplement of paper PMC9112550, “Optimization of the antimicrobial peptide Bac7 by deep mutational scanning” (BMC Biology, 2022):

Tested on: Escherichia coli TOP10
Experiment: shrunken log2 fold change of peptide-encoding DNA abundance (4.5 h post-induction vs induction); higher = less antimicrobial activity (less host growth inhibition)
Conditions: time post-induction: 4.5 h; library: site-saturation at positions 5, 18, 19, 20
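Also: peptides expressed intracellularly from a pBAD plasmid library in pooled LB shake-flask culture, induced with 0.3% L-arabinose, DNA abundance read by NGS, three biological replicates, DESeq2 with apeglm shrinkage.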

In order of rising “shrunken log2 fold change” value:
1. RRIRYRPPRLPRPRPRPDWFPRP  -0.987
2. RRIRIRPPRLPRPRPRPHTNPRP  -0.906
3. RRIRCRPPRLPRPRPRPFKMPRP  -0.854
4. RRIRPRPPRLPRPRPRPYIPPRP  -0.719
5. RRIRIRPPRLPRPRPRPAITPRP  -0.706
6. RRIRHRPPRLPRPRPRPFNEPRP  -0.64
7. RRIRYRPPRLPRPRPRPPNHPRP  -0.626
8. RRIRGRPPRLPRPRPRPQNIPRP  -0.603
9. RRIRIRPPRLPRPRPRPQSYPRP  -0.603
10. RRIRFRPPRLPRPRPRPQNTPRP  -0.512
11. RRIRFRPPRLPRPRPRPNMIPRP  -0.495
12. RRIRCRPPRLPRPRPRPKCMPRP  -0.483
13. RRIRIRPPRLPRPRPRPNDGPRP  -0.483
14. RRIRVRPPRLPRPRPRPTSYPRP  -0.45
15. RRIRNRPPRLPRPRPRPCPVPRP  -0.438
16. RRIRVRPPRLPRPRPRPEWYPRP  -0.419
17. RRIRERPPRLPRPRPRPIIHPRP  -0.413
18. RRIRPRPPRLPRPRPRPYIQPRP  -0.375
19. RRIRTRPPRLPRPRPRPDNPPRP  -0.371
20. RRIRQRPPRLPRPRPRPQQHPRP  -0.362
21. RRIRCRPPRLPRPRPRPYFWPRP  -0.347
22. RRIRLRPPRLPRPRPRPKNTPRP  -0.333
23. RRIRCRPPRLPRPRPRPFKKPRP  -0.319
24. RRIRDRPPRLPRPRPRPMWIPRP  -0.306
25. RRIRKRPPRLPRPRPRPFTAPRP  -0.291
26. RRIRRRPPRLPRPRPRPDCSPRP  -0.27
27. RRIRRRPPRLPRPRPRPQNSPRP  -0.266
28. RRIRERPPRLPRPRPRPVMPPRP  -0.259
29. RRIRHRPPRLPRPRPRPPIVPRP  -0.252
30. RRIRYRPPRLPRPRPRPQGAPRP  -0.238
31. RRIRTRPPRLPRPRPRPCMCPRP  -0.222
32. RRIRPRPPRLPRPRPRPHTVPRP  -0.214
33. RRIRCRPPRLPRPRPRPTFGPRP  -0.213
34. RRIRERPPRLPRPRPRPSKFPRP  -0.199
35. RRIRARPPRLPRPRPRPTMCPRP  -0.198
36. RRIRHRPPRLPRPRPRPRMYPRP  -0.194
37. RRIRHRPPRLPRPRPRPNFPPRP  -0.189
38. RRIRIRPPRLPRPRPRPMWHPRP  -0.176
39. RRIRYRPPRLPRPRPRPTAVPRP  -0.169
40. RRIRCRPPRLPRPRPRPAQLPRP  -0.169
41. RRIRCRPPRLPRPRPRPLDTPRP  -0.153
42. RRIRWRPPRLPRPRPRPWTTPRP  -0.148
43. RRIRLRPPRLPRPRPRPGANPRP  -0.146
44. RRIRCRPPRLPRPRPRPDHEPRP  -0.144
45. RRIRKRPPRLPRPRPRPYQWPRP  -0.143
46. RRIRARPPRLPRPRPRPRYHPRP  -0.135
47. RRIRFRPPRLPRPRPRPDQWPRP  -0.125
48. RRIRCRPPRLPRPRPRPLGFPRP  -0.116
49. RRIRIRPPRLPRPRPRPMTNPRP  -0.108
50. RRIRTRPPRLPRPRPRPIKDPRP  -0.104
51. RRIRMRPPRLPRPRPRPLMGPRP  -0.0985
52. RRIRSRPPRLPRPRPRPAYSPRP  -0.0975
53. RRIRTRPPRLPRPRPRPWWWPRP  -0.0964
54. RRIRVRPPRLPRPRPRPDGQPRP  -0.0901
55. RRIRMRPPRLPRPRPRPDHFPRP  -0.0876
56. RRIRYRPPRLPRPRPRPSDCPRP  -0.0875
57. RRIRERPPRLPRPRPRPGRIPRP  -0.0858
58. RRIRDRPPRLPRPRPRPHIYPRP  -0.0848
59. RRIRLRPPRLPRPRPRPMMDPRP  -0.0843
60. RRIRERPPRLPRPRPRPTKTPRP  -0.0835
61. RRIRWRPPRLPRPRPRPMGNPRP  -0.0828
62. RRIRTRPPRLPRPRPRPQPVPRP  -0.0826
63. RRIRTRPPRLPRPRPRPMHFPRP  -0.0728
64. RRIRVRPPRLPRPRPRPIGRPRP  -0.0725
65. RRIRPRPPRLPRPRPRPHQCPRP  -0.0701
66. RRIRNRPPRLPRPRPRPIKYPRP  -0.068
67. RRIRQRPPRLPRPRPRPEVTPRP  -0.0614
68. RRIRVRPPRLPRPRPRPTCHPRP  -0.0606
69. RRIRFRPPRLPRPRPRPPHHPRP  -0.0595
70. RRIRDRPPRLPRPRPRPSDSPRP  -0.0584
71. RRIRMRPPRLPRPRPRPLSSPRP  -0.0576
72. RRIRHRPPRLPRPRPRPQHVPRP  -0.048
73. RRIRFRPPRLPRPRPRPAQQPRP  -0.0456
74. RRIRERPPRLPRPRPRPRFCPRP  -0.0399
75. RRIRWRPPRLPRPRPRPELGPRP  -0.0384
76. RRIRHRPPRLPRPRPRPICAPRP  -0.0362
77. RRIRFRPPRLPRPRPRPVAMPRP  -0.0306
78. RRIRMRPPRLPRPRPRPHYEPRP  -0.0284
79. RRIRIRPPRLPRPRPRPYHCPRP  -0.0272
80. RRIRFRPPRLPRPRPRPQPNPRP  -0.0249
81. RRIRMRPPRLPRPRPRPQYIPRP  -0.0206
82. RRIRYRPPRLPRPRPRPCSIPRP  -0.0204
83. RRIRHRPPRLPRPRPRPHQAPRP  -0.0163
84. RRIRYRPPRLPRPRPRPKRTPRP  -0.0162
85. RRIRHRPPRLPRPRPRPERMPRP  -0.0151
86. RRIRPRPPRLPRPRPRPIRDPRP  -0.015
87. RRIRTRPPRLPRPRPRPLMIPRP  -0.0131
88. RRIRHRPPRLPRPRPRPMLCPRP  -0.0124
89. RRIRERPPRLPRPRPRPCDMPRP  -0.0119
90. RRIRKRPPRLPRPRPRPVPNPRP  -0.00404
91. RRIRVRPPRLPRPRPRPMQAPRP  -0.0023
92. RRIRWRPPRLPRPRPRPDKAPRP  -0.00149
93. RRIRQRPPRLPRPRPRPDEVPRP  0.0037
94. RRIRIRPPRLPRPRPRPMENPRP  0.0119
95. RRIRWRPPRLPRPRPRPSYAPRP  0.0124
96. RRIRLRPPRLPRPRPRPMSSPRP  0.0128
97. RRIRLRPPRLPRPRPRPVADPRP  0.0131
98. RRIRMRPPRLPRPRPRPNNYPRP  0.0147
99. RRIRQRPPRLPRPRPRPQSWPRP  0.0219
100. RRIRLRPPRLPRPRPRPPVLPRP  0.0296
101. RRIRGRPPRLPRPRPRPFHGPRP  0.0325
102. RRIRARPPRLPRPRPRPHDFPRP  0.0354
103. RRIRWRPPRLPRPRPRPQHWPRP  0.0364
104. RRIRNRPPRLPRPRPRPTNVPRP  0.0366
105. RRIRCRPPRLPRPRPRPEVDPRP  0.0462
106. RRIRFRPPRLPRPRPRPWQMPRP  0.053
107. RRIRKRPPRLPRPRPRPGNDPRP  0.054
108. RRIRVRPPRLPRPRPRPMSEPRP  0.0558
109. RRIRMRPPRLPRPRPRPKMYPRP  0.0587
110. RRIRYRPPRLPRPRPRPRDWPRP  0.0703
111. RRIRPRPPRLPRPRPRPDADPRP  0.0741
112. RRIRQRPPRLPRPRPRPAKLPRP  0.0771
113. RRIRRRPPRLPRPRPRPHTCPRP  0.0847
114. RRIRFRPPRLPRPRPRPMHEPRP  0.085
115. RRIRTRPPRLPRPRPRPTQAPRP  0.111
116. RRIRSRPPRLPRPRPRPAETPRP  0.114
117. RRIRPRPPRLPRPRPRPLLCPRP  0.127
118. RRIRRRPPRLPRPRPRPEILPRP  0.14
119. RRIRARPPRLPRPRPRPMIKPRP  0.148
120. RRIRPRPPRLPRPRPRPMHAPRP  0.159
121. RRIRPRPPRLPRPRPRPIGPPRP  0.162
122. RRIRFRPPRLPRPRPRPNPQPRP  0.17
123. RRIRTRPPRLPRPRPRPFDQPRP  0.176
124. RRIRTRPPRLPRPRPRPSDMPRP  0.185
125. RRIRSRPPRLPRPRPRPTHKPRP  0.202
126. RRIRGRPPRLPRPRPRPCDKPRP  0.297
127. RRIRGRPPRLPRPRPRPWRNPRP  0.297
128. RRIRRRPPRLPRPRPRPPMLPRP  0.317
129. RRIRWRPPRLPRPRPRPIVRPRP  0.326
130. RRIRWRPPRLPRPRPRPASEPRP  0.329
131. RRIRPRPPRLPRPRPRPMHSPRP  0.355
132. RRIRARPPRLPRPRPRPSACPRP  0.359
133. RRIRKRPPRLPRPRPRPVETPRP  0.416
134. RRIRMRPPRLPRPRPRPVSPPRP  0.418
135. RRIRTRPPRLPRPRPRPPVAPRP  0.428
136. RRIRGRPPRLPRPRPRPSLKPRP  0.441
137. RRIRWRPPRLPRPRPRPTFCPRP  0.478
138. RRIRARPPRLPRPRPRPQPWPRP  0.536
139. RRIRGRPPRLPRPRPRPKNQPRP  0.551
140. RRIRGRPPRLPRPRPRPIVQPRP  0.606
141. RRIRCRPPRLPRPRPRPPGEPRP  0.609
142. RRIRYRPPRLPRPRPRPKLWPRP  0.64
143. RRIRMRPPRLPRPRPRPDDCPRP  0.681
144. RRIRMRPPRLPRPRPRPTVWPRP  0.736
145. RRIRKRPPRLPRPRPRPPDPPRP  0.889
146. RRIRGRPPRLPRPRPRPIAVPRP  0.892
147. RRIRDRPPRLPRPRPRPVCAPRP  1.12
148. RRIRGRPPRLPRPRPRPPDEPRP  1.27
149. RRIRMRPPRLPRPRPRPDCMPRP  2.24
150. RRIRYRPPRLPRPRPRPTYAPRP  3.45
